The target in data set [1] is T1, FL-Nsp1 (non-structural protein 1) (SARS-CoV-2, UniProt P0DTD1 1-180). As to the kind of experiment: NMR.
Data set [2] addresses T1, FL-Nsp1 (non-structural protein 1). The data set can be described thus: NMR. The source holds these as a separate data set.

Like-named read-outs stand apart in the source and are kept apart here.

B1: SL1 (structured_RNA)
RNA: GGGUUUAUACCUUCCCAGGUAACAAACCC
With B1, the binding result in data set [1] is recorded as “no binding”.

B2: SL1-4 (structured_RNA)
RNA: GGUUUAUACCUUCCCAGGUAACAAACCAACCAACUUUCGAUCUCUUGUAGAUCUGUUCUCUAAACGAACUUUAAAAUCUGUGUGGCUGUCACUCGGCUGCAUGCUUAGUGCACUCACGC
For the molecule B2, the binding result in data set [2] is recorded as “no binding”.

The record behind these values is article PMC9817231.
